Results reported in PMC4662854, “Structure and function of the N‐terminal domain of the human mitochondrial calcium uniporter” (EMBO Reports, 2015).

Molecular target: the molecule itself
Assay: cross-linking; glutaraldehyde cross-linking of MCU NTD-E in solution, in PBS and in crystallization conditions

B1: MCU NTD-E (extended N-terminal domain of MCU, residues 75-185) (domain or fragment, human, UniProt Q8NE86-1 75-185, looked up)
chain: VTVVYQNGLPVISVRLPSRRERCQFTLKPISDSVGVFLRQLQEEDRGIDRVAIYSPDGVRVAASTGIDLLLLDDFKLVINDLTYHVRPPKRDLLSHENAATLNDVKTLVQQ
notes: mitochondrial calcium uniporter (MCU), human, NP_612366, residues 75-185; In the crystal residues 183-185 were not modelled and the imidazole ring of His170 is possibly modified by unidentified adducts; source: purified (Ni-NTA, SEC on Superdex 75) by a procedure similar to that of T4 lysozyme-MCU NTD; cloned into pColdII
binding result: binds
